Assay results reported in PMC4976216.

Biological target: microtubules made from mutant yeast tubulin containing no β-CTT (Saccharomyces cerevisiae) (UniProt P09733)
Assay: co-sedimentation; microtubule binding spin-down assay with yeast tubulin polymerized at 30 °C, experiment carried out at 30 °C; anti-tubulin and anti-CGN western blot

reduction in binding against wild-type yeast tubulin: 75%
B1: GST-CGN(1-406) (domain or fragment)
chain: MEQAPNMAEPRGPVDHGVQIRFITEPVSGAEMGTLRRGGRRPAKDARASTYGVAVRVQGIAGQPFVVLNSGEKGGDSFGVQIKGANDQGASGALSSDLELPENPYSQVKGFPAPSQSSTSDEEPGAYWNGKLLRSHSQASLAGPGPVDPSNRSNSMLELAPKVASPGSTIDTAPLSSVDSLINKFDSQLGGQARGRTGRRTRMLPPEQRKRSKSLDSRLPRDTFEERERQSTNHWTSSTKYDNHVGTSKQPAQSQNLSPLSGFSRSRQTQDWVLQSFEEPRRSAQDPTMLQFKSTPDLLRDQQEAAPPGSVDHMKATIYGILREGSSESETSVRRKVSLVLEKMQPLVMVSSGSTKAVAGQGELTRKVEELQRKLDEEVKKRQKLEPSQVGLERQLEEKTEECSRL
